Measurements as given in patent publication US20120322685A1, “DEVICE FOR COLLECTING AND ANALYZING MIGRATORY TUMOR CELLS” (priority 2010, published 2012).

B1: CSF-1: growth factor chemotactic for macrophages (protein, UniProt P09603 33-554, looked up)
Macrophage colony-stimulating …: EEVSEYCSHMIGSGHLQSLQRLIDSQMETSCQITFEFVDQEQLKDPVCYLKKAFLLVQDIMEDTMRFRDNTPNAIAIVQLQELSLRLKSCFTKDYEEHDKACVRTFYETPLQLLEKVKNVFNETKNLLDKDWNIFSKNCNNSFAECSSQDVVTKPDCNCLYPKAIPSSDPASVSPHQPLAPSMAPVAGLTWEDSEGTEGSSLLPGEQPLHTVDPGSAKQRPPRSTCQSFEPPETPVVKDSTIGGSPQPRPSVGAFNPGMEDILDSAMGTNWVPEEASGEASEIPVPQGTELSPSRPGGGSMQTEPARPSNFLSASSPLPASAKGQQPADVTGTALPRVGPVRPTGQDWNHTPQKTDHPSALLRDPPEPGSPRISSLRPQGLSNPSTLSAQPQLSRSHSSGSVLPLGELEGRRSTRDRRSPAEPEGGPASEGAARPLPRFNSVPLTDTGHERQSEGSFSPQLQESVFHLLVPSVILVLLAVGGLLFYRWRRRSHQEPQRADSPLEQPEGSPLTQDDRQVELPV
B2: EGF: epidermal growth factor, chemotactic factor used in collection needles (protein, UniProt P01133 23-1207, looked up)
Pro-epidermal growth factor: PQHWSCPEGTLAGNGNSTCVGPAPFLIFSHGNSIFRIDTEGTNYEQLVVDAGVSVIMDFHYNEKRIYWVDLERQLLQRVFLNGSRQERVCNIEKNVSGMAINWINEEVIWSNQQEGIITVTDMKGNNSHILLSALKYPANVAVDPVERFIFWSSEVAGSLYRADLDGVGVKALLETSEKITAVSLDVLDKRLFWIQYNREGSNSLICSCDYDGGSVHISKHPTQHNLFAMSLFGDRIFYSTWKMKTIWIANKHTGKDMVRINLHSSFVPLGELKVVHPLAQPKAEDDTWEPEQKLCKLRKGNCSSTVCGQDLQSHLCMCAEGYALSRDRKYCEDVNECAFWNHGCTLGCKNTPGSYYCTCPVGFVLLPDGKRCHQLVSCPRNVSECSHDCVLTSEGPLCFCPEGSVLERDGKTCSGCSSPDNGGCSQLCVPLSPVSWECDCFPGYDLQLDEKSCAASGPQPFLLFANSQDIRHMHFDGTDYGTLLSQQMGMVYALDHDPVENKIYFAHTALKWIERANMDGSQRERLIEEGVDVPEGLAVDWIGRRFYWTDRGKSLIGRSDLNGKRSKIITKENISQPRGIAVHPMAKRLFWTDTGINPRIESSSLQGLGRLVIASSDLIWPSGITIDFLTDKLYWCDAKQSVIEMANLDGSKRRRLTQNDVGHPFAVAVFEDYVWFSDWAMPSVMRVNKRTGKDRVRLQGSMLKPSSLVVVHPLAKPGADPCLYQNGGCEHICKKRLGTAWCSCREGFMKASDGKTCLALDGHQLLAGGEVDLKNQVTPLDILSKTRVSEDNITESQHMLVAEIMVSDQDDCAPVGCSMYARCISEGEDATCQCLKGFAGDGKLCSDIDECEMGVPVCPPASSKCINTEGGYVCRCSEGYQGDGIHCLDIDECQLGEHSCGENASCTNTEGGYTCMCAGRLSEPGLICPDSTPPPHLREDDHHYSVRNSDSECPLSHDGYCLHDGVCMYIEALDKYACNCVVGYIGERCQYRDLKWWELRHAGHGQQQKVIVVAVCVVVLVMLLLLSLWGAHYYRTQKLLSKNPKNPYEESSRDVRSRRPADTEDGMSSCPQPWFVVIKEHQDLKNGGQPVAGEDGQAADGSMQPTSWRQEPQLCGMGTEQGCWIPVSSDKGSCPQVMERSFHMPSYGTQTLEGGVEKPHSLLSANPLWQQRALDPPHQMELTQ
modifications: Pro-epidermal growth factor
notes: epidermal growth factor, chemotactic factor used in collection needles

Tests used:
[1] = test system: tumor cells and macrophages of primary mammary tumors; assay: in vivo invasion assay, needles with matrigel and growth factors in primary mammary tumor; set-up: species or system rats and mice; conditions: factor in matrigel-filled needle placed in primary tumor
From the text: (§1) Therefore, an in vivo invasion assay was created in which three needles (microneedles ˜100 um in diameter) containing matrigel and various growth factors are placed independently with microscopic precision, using a specially designed micromanipulator guided device, into the primary tumor for chemotaxis-based cell collection in vivo [3]. One needle contains control conditions (usually no ligand or an inhibitor), and the other two are identical. […] Fetal serum was also sufficient but this required signaling by the EGF receptor again implicating the EGF receptor. Furthermore, CSF-1 was also sufficient for cell collection. […] Migration and collection was directly correlated with macrophage density in the mammary gland, stage of progression to malignancy (only background levels of cells, <200 cells, were collected from normal mammary glands and adenoma stage tumors compared with carcinoma stage tumors, ˜1000 cells) and the presence of CSF1 in the tumor was required for cell collection as shown using mouse models with either decreased (op/op) or increased (tet on CSF-1) CSF-1 expression that regulates macrophage recruitment to the mammary gland and metastasis. […] Furthermore, the motility of tumor cells and intravasation occurs preferentially in association with macrophages. […]

[2] = test system: Human lung tumors heterotransplanted into nude mice; assay: in vivo invasion assay, chemotaxis-based cell collection into needles, human lung tumor heterotransplants; conditions: needles containing 25 nM EGF; first mouse to mouse transplant
From the text: as §1

[3] = test system: MDA-MB-231 derived mammary tumors; assay: in vivo invasion assay, MDA-MB-231 derived mammary tumors; set-up: species or system human tumor xenograft in SCID mice tumor xenograft in SCID mice; conditions: MDA-MB-231 injected into mammary fat pad of mice; FIG. 1C
From the text: Therefore, an in vivo invasion assay was created in which three needles (microneedles ˜100 um in diameter) containing matrigel and various growth factors are placed independently with microscopic precision, using a specially designed micromanipulator guided device, into the primary tumor for chemotaxis-based cell collection in vivo [3]. One needle contains control conditions (usually no ligand or an inhibitor), and the other two are identical. […] Fetal serum was also sufficient but this required signaling by the EGF receptor again implicating the EGF receptor. Furthermore, CSF-1 was also sufficient for cell collection. […]
Mammary tumors derived by injecting the human cell line MDA-MB-231 into a mammary fat pad of mice were used in the in vivo invasion assay. […] The involvement of EGF and CSF1 in carcinoma cell invasion has been analyzed from primary breast tumors derived from the injection of MDA-MB-231 cells into the mammary fat pads of SCID mice. […]

Row | Molecule | chemotaxis to indwelling needles / cell collection [1] | fold more cells collected in needles as compared to needles with buffer alone [2] [fold] | fold more cells collected in response to EGF [3] [fold]
1 | B1 | sufficient | – | –
2 | B2 | stimulated collection | 2.5 | 2.5
